Measurements published in patent US20190359693A1.

Assays:
Test in all cases: cell-based or functional assay
[1] = target: hemagglutinin (HA) of influenza virus H3N2 A/Hiroshima/52/05 (influenza A virus)
[2] = target: hemagglutinin (HA) of influenza virus H1N1 A/California/07/09 (influenza A virus)
[3] = target: hemagglutinin (HA) of influenza virus B/Massachusetts/02/12 (Yamagata) (influenza B virus)
[4] = target: hemagglutinin (HA) of influenza virus H7N9 A/Shanghai/2/13 (influenza A virus)
[5] = target: hemagglutinin (HA) of influenza virus H10N3 A/Common Teal/MPH11/08 (influenza A virus)
[6] = target: hemagglutinin (HA) of influenza virus H3N2 A/Victoria/210/09 (influenza A virus)
[7] = target: hemagglutinin (HA) of influenza virus H1N1 A/Christchurch/16/10 (influenza A virus)
[8] = target: hemagglutinin (HA) of influenza virus B/Lee/40 (Old) (influenza B virus) (UniProt P03460)
Sequence of hemagglutinin (HA) of influenza virus B/Lee/40 (Old) (influenza B virus) (P03460 16-584 limits assumed): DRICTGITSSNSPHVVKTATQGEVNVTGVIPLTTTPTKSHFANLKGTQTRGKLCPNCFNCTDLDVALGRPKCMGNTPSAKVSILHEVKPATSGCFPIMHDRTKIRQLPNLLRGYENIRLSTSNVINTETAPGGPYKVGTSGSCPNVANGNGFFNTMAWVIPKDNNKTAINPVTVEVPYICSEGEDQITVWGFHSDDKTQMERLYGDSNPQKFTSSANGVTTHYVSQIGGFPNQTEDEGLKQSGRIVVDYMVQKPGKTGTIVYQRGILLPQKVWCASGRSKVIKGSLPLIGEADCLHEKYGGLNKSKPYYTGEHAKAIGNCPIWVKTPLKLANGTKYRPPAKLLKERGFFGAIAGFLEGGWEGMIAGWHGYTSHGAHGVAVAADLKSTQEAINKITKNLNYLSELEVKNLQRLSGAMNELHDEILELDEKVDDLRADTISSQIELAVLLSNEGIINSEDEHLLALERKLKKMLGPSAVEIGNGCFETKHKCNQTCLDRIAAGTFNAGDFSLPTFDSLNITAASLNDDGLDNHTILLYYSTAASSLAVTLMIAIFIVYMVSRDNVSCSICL

[9] = target: hemagglutinin (HA) of influenza virus H9N2 A/Great Cormorant/MP2934/04 (influenza A virus)
[10] = target: hemagglutinin (HA) of influenza virus H7N7 A/Common Teal/MPF139/07 (influenza A virus)
[11] = target: hemagglutinin (HA) of influenza virus B/Brisbane/60/08 (Victoria) (influenza B virus)
[12] = target: hemagglutinin (HA) of influenza virus H10N9 A/Northern Shoveler/MPE2531/08 (influenza A virus)
[13] = target: hemagglutinin (HA) of influenza virus H1N1 A/Brisbane/59/07 (influenza A virus)
[14] = target: hemagglutinin (HA) of influenza virus H1N1 A/Solomon Islands/3/2006 (IVR 145) (influenza A virus)
[15] = target: hemagglutinin (HA) of influenza virus H3N2 A/Brisbane/10/07 (influenza A virus)
[16] = target: hemagglutinin (HA) of influenza virus H2N2 A/Guiyang/1/57 (influenza A virus)
[17] = target: hemagglutinin (HA) of influenza virus B/Florida/04/06 (Yamagata) (influenza B virus)
[18] = target: hemagglutinin (HA) of influenza virus H9N2 A/Ck/HK/SSP176/09 (influenza A virus)
[19] = target: hemagglutinin (HA) of influenza virus H7N7 A/Netherlands/219/2003 (influenza A virus)
[20] = target: hemagglutinin (HA) of influenza virus H3N2 A/HK/1/68-MA (influenza A virus)
[21] = target: hemagglutinin (HA) of influenza virus H4N1 A/Northern Pintail/MPB1368/06 (influenza A virus)
[22] = target: hemagglutinin (HA) of influenza virus H5N2 A/Eurasian Wigeon/HK/MPF333/07 (influenza A virus)
[23] = target: hemagglutinin (HA) of influenza virus H3N2 A/Johannesburg/33/94 (influenza A virus)
[24] = target: hemagglutinin (HA) of influenza virus H5N2 A/Eurasian Wigeon/MPF461/07 (influenza A virus)
[25] = target: hemagglutinin (HA) of influenza virus H2N2 A/AnnArbor/23/57 (influenza A virus)

B1: MD2407 (bispecific antibody)
chain: EVQLVESGGGLVQPGGSLRLSCAVSISIFDIYAMDWYRQAPGKQRDLVATSFRDGSTNYADSVKGRFTISRDNAKNTLYLQMNSLKPEDTAVYLCHVSLYRDPLGVAGGMGVYWGKGALVTVSSGGGGSGGGGSEVQLVESGGGLVQAGGSLKLSCAASGRTYAMGWFRQAPGKEREFVAHINALGTRTYYSDSVKGRFTISRDNAKNTEYLEMNNLKPEDTAVYYCTAQGQWRAAPVAVAAEYEFWGQGTQVTVSSGGGGSGGGGSEVQLVESGGGLVQPGGSLRLSCAATGFTLENKAIGWFRQTPGSEREGVLCISKSGSWTYYTDSMRGRFTISRDNAENTVYLQMDSLKPEDTAVYYCATTTAGGGLCWDGTTFSRLASSWGQGTQVTVSSGGGGSGGGGSEVQLVESGGGLVQPGGSLKLSCAASGFTFSTSWMYWLRQAPGKGLEWVSVINTDGGTYYADSVKDRFTISRDNAKDTLYLQMSSLKSEDTAVYYCAKDWGGPEPTRGQGTQVTVSS
[1]
  average neutralization titer: 10.5 nM
[2]
  average neutralization titer: 3.4 nM
[3]
  average neutralization titer: 3 nM
[4]
  average neutralization titer: 54.2 nM
[5]
  average neutralization titer: 19.3 nM
[6]
  average neutralization titer: 6.5 nM
[7]
  average neutralization titer: 1.3 nM
[8]
  average neutralization titer: 18.4 nM
[9]
  average neutralization titer: 19.6 nM
[10]
  average neutralization titer: 57.4 nM
[11]
  average neutralization titer: 4.1 nM
[12]
  average neutralization titer: 35 nM
[13]
  average neutralization titer: 3.7 nM
[14]
  average neutralization titer: 5.4 nM
[15]
  average neutralization titer: 10.6 nM
[16]
  average neutralization titer: 126 nM
[17]
  average neutralization titer: 7.6 nM
[18]
  average neutralization titer: 23 nM
[19]
  average neutralization titer: 33 nM
[20]
  average neutralization titer: 25.9 nM
[21]
  average neutralization titer: 8.2 nM
[22]
  average neutralization titer: 26 nM
[23]
  average neutralization titer: 11.6 nM
[24]
  average neutralization titer: 16.6 nM
[25]
  average neutralization titer: 101 nM
